The values that follow come from patent US20260043041A1, “HSL PROTEIN, GENE, VECTOR, CELL, COMPOSITION AND USE THEREOF, AND METHOD FOR IMPROVING HERBICIDE RESISTANCE OF CROPS” (CENTRAL CHINA NORMAL UNIVERSITY, priority 2022, published 2026).

For data set [1], the target named is T1, rice OsHSL1 (SEQ ID NO: 1) mutant OsHSL1_F140H/L204F/F298L/I335A (Oryza sativa, UniProt A0A7G1K9G4, F140H/F298L/I335A/L204F).
T1 construct: isolated enzyme, HPLC assay
The experiment in a line: Enzyme kinetic parameters with HPPD inhibitors as substrate (HPLC). The format is biochemical. To be noted: compared with OsHSL1 wild type; close to the OsHIS1 wild type. The text has this:
(§1) High Performance Liquid Chromatography (HPLC) was used to test OsHIS1 wild-type protein (the amino acid sequence of OsHIS1 wild-type is shown as SEQ ID NO 2, and the corresponding nucleotide sequence is shown as SEQ ID NO 21), the enzyme kinetic parameters of OsHSL1 wild-type protein and some OsHSL1 mutant proteins with higher reactivity and HPPD inhibitors, and the specific results are shown in Table 9-Table 12. […] Each sample was replicated three times. • e.

For data set [2], the system named is OsHSL1 wild type T1 generation positive rice plants. The experiment in a line: Herbicide resistance test, over-expression in rice (stem-leaf treatment). The format is in vivo. To be noted: 2 g/mu and 8 g/mu. The method, then:
(§2) Successfully overexpressed OsHSL1_F140H/L204F/F298L/I335A mutants and OsHSL1 wild type TO generation tissue culture seedlings were selected, cultivated and harvested, and then sown to offspring population T1 generation rice plants, and positive over-expression rice plants were identified.
(§3) OsHSL1_F140H/L204F/F298L/I335A mutant T1 generation positive rice plants and OsHSL1 wild-type T1 generation positive rice plants at 3 weeks of seedling age were treated with different concentrations of methyl-benquitrione aqueous solution on the Stem leaves, and OsHSL1 wild-type T1 generation positive rice plants as a control. The resistance of mutant OsHSL1_F140H/L204F/F298L/I335A to methyl-benquitrione was tested, and the specific results were shown in FIG. 1.

The subject of data set [3] is OsHSL1_F140H/L204F/F298L/I335A mutant T1 generation positive rice plants. Described as above. To be noted: 2 g/mu and 8 g/mu, after 23 days of treatment. The format is in vivo. The method, then:
as §2, §3

The target in data set [4] is T2, rice OsHSL1 (SEQ ID NO: 1) mutant OsHSL1_I335F (Oryza sativa, UniProt A0A7G1K9G4, I335F).
T2 construct: isolated enzyme, HPLC assay
Description: Enzyme kinetic parameters with HPPD inhibitors as substrate (HPLC). The format is biochemical. To be noted: compared with OsHSL1 wild type.
Text: as §1

Data set [5] has as its target T3, rice OsHSL1 (SEQ ID NO: 1) mutant OsHSL1_L204F/F298L/I335A (Oryza sativa, UniProt A0A7G1K9G4, F298L/I335A/L204F).
T3 construct: isolated enzyme, HPLC assay; I335A may be a misprint of I335F
T3 sequence (A0A7G1K9G4 1-350 L204F/F298L/I335A): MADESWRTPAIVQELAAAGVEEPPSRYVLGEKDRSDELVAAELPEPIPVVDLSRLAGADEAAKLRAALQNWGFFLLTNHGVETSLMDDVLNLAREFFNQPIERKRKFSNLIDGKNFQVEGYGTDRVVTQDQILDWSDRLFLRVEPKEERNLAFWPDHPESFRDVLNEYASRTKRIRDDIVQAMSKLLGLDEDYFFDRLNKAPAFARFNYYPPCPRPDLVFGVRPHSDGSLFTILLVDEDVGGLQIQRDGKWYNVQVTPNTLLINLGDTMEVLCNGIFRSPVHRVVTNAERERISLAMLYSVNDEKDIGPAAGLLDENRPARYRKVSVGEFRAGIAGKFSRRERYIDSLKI
Described as above. The format is biochemical.
Text: as §1

The nature of data set [6]: Catalytic activity of HSL proteins on HPPD inhibitors (HPLC, substrate consumption). Format: biochemical. To be noted: 30° C., 10 h, protein 0.5 mg/mL; for Catalytic efficiency (%) Compound A: substrate Compound A 50 μM; for Catalytic efficiency (%) benzobicyclon technical: substrate benzobicyclon technical 50 μM; for Catalytic efficiency (%) Mesotrione: substrate mesotrione 50 μM; for Catalytic efficiency (%) methyl-benquitrione: substrate methyl-benquitrione 50 μM; for Catalytic efficiency (%) pyraquinate technical: substrate pyraquinate technical 50 μM; for Catalytic efficiency (%) tefuryltrione: substrate tefuryltrione 50 μM; for Catalytic efficiency (%) tembotrione: substrate tembotrione 50 μM. The method, then: (§4) Each sample was replicated three times. • e.
(§5) Control: refers to the addition of inhibitors to the reaction system, but not the addition of enzymes, which is regarded as the substrate surplus when the inhibitor is not catalyzed.
(§6) Sample: in the enzyme reaction system, the same volume and the same concentration (50 μM) of the inhibitor was added, and the catalytic efficiency of the enzyme to the inhibitor was observed.
(§7) Catalytic efficiency=(1−(peak area of substrate in sample)/(peak area of substrate in control))×100%.

The format of data set [7] is biochemical. To be noted: for Catalytic efficiency (%) topramezone: substrate topramezone 50 μM, 30° C., 10 h, protein 0.5 mg/mL. As for the experimental part:
as §4, §5, §6, §7

Data set [8] is described as follows: Enzyme kinetic parameter study (HPLC, Michaelis-Menten fit). Format: biochemical. To be noted: statement on Table 11.
Text: as §1

Data set [9] relates to T1 generation positive rice plants. The experiment in a line: Herbicide resistance test of over-expression in rice (methyl-benquitrione stem-leaf treatment). Format: in vivo. To be noted: conclusion from FIG. 1. The method, then: as §2, §3
FIG. 1 is a graph showing the sensitivity of OsHSL1_F140H/L204F/F298L/I335A mutant T1 generation positive rice plants and OsHSL1 wild type T1 generation positive rice plants to the HPPD inhibitor methyl-benquitrione.

Substitutions are numbered along the chain they refer to. Numbers in names are those of the source. Entries after “also recorded” stand apart in the source; their conditions may differ.

T1 sequence (A0A7G1K9G4 entry or part of it F140H/L204F/F298L/I335A): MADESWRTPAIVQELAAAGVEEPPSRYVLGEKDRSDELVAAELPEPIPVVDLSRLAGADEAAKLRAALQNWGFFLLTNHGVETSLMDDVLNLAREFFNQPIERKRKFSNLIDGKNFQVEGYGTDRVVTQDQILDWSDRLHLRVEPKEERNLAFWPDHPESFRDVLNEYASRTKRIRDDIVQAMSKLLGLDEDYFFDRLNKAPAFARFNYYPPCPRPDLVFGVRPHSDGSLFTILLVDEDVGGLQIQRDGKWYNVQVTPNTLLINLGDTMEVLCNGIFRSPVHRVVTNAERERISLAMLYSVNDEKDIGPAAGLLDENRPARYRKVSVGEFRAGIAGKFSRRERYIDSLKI
T2 sequence (A0A7G1K9G4 entry or part of it I335F): as the sequence (A0A7G1K9G4 entry or part of it F140H/L204F/F298L/I335A) above, with H140F, F204L, L298F, A335F counted along it

For `Cc1ccccc1-n1c(=O)c2c(C)c(C(=O)C3=C(O)CCCC3=O)ccc2n(C)c1=O` [methyl-benquitrione], in [1], the “affinity and catalytic efficiency (in words)” value is “better affinity and catalytic efficiency”. For the same molecule, the albinism symptoms entry in data set [2] (after 16 days of treatment) is given as “almost all have albinism symptoms”. Moreover, the albino symptoms entry in data set [2] (after 23 days of treatment) is recorded as “albino symptoms become very obvious”. In addition, the “sensitivity (plant colour)” value in data set [3] is “basically keep normal green”.

On to `Cc1c(C(=O)c2cnn(C)c2O)ccc(S(C)(=O)=O)c1C1=NOCC1` [topramezone], for which, in data set [4], the “catalytic efficiency (in words)” value is “obviously superior”.

On to `Cc1nn(C)c(O)c1C(=O)c1ccc2c(c1C)c(=O)n(-c1cccc(Cl)c1)c(=O)n2C` [pyraquinate technical, pyraquinate], for which, in data set [5] (compared with OsHIS1 wild type and OsHSL1 wild type), the “affinity and catalytic efficiency (in words)” value is “superior”. In [5] (pH 7.0, 30° C., about 20 min), this molecule returned a Kcat of 0.00135 s⁻¹.

B1: OsHSL1_I335F: SEQ ID NO.1 with the isoleucine at site 335 mutated to phenylalanine (protein, listed as Oryza sativa)
chain: T3 sequence (A0A7G1K9G4 1-350 L204F/F298L/I335A) with F204L, L298F, A335F
With B1, in data set [6], the “Catalytic efficiency (%) Compound A” value is given as 0%, the “Catalytic efficiency (%) benzobicyclon technical” value worked out at 44%, the “Catalytic efficiency (%) Mesotrione” value was 15% and the “Catalytic efficiency (%) methyl-benquitrione” value turned out to be 0%. Besides, in data set [6], the “Catalytic efficiency (%) pyraquinate technical” value is 24%, the “Catalytic efficiency (%) tefuryltrione” value amounted to 98% and the “Catalytic efficiency (%) tembotrione” value turned out to be 62%. Further, in data set [7], the “degradation of topramezone (in words)” value is recorded as “can completely degrade topramezone”, the “effect on topramezone degradation versus OsHSL1 wild type (in words)” value is “significantly better effect on topramezone degredation than OsHSL1 wild type” and the “Catalytic efficiency (%) topramezone” value is reported as 100%. The “Catalytic efficiency (%) 30 min” value in [7] (topramezone degradation, reaction time 30 min) is 97%. For the same molecule, the “Catalytic efficiency (%) 60 min” value in data set [7] (topramezone degradation, reaction time 60 min) was determined as 100%. The “Catalytic efficiency (%) 120 min” value in data set [7] (topramezone degradation, reaction time 120 min) turned out to be 100%. Moreover, the “Catalytic efficiency (%) 300 min” value in data set [7] (topramezone degradation, reaction time 300 min) turned out to be 100%. In addition, the “Catalytic efficiency (%) 600 min” value in [7] (topramezone degradation, reaction time 600 min) stood at 100%. Moreover, the “catalytic efficiency to topramezone versus wild type (in words)” value in data set [8] is “obviously superior to that of OsHSL1 wild type”.

B2: OsHSL1_F140H/L204F/F298L/I335A: SEQ ID NO.1 with F140 to histidine, L204 to phenylalanine, F298 to leucine, I335 to alanine (protein)
chain: T3 sequence (A0A7G1K9G4 1-350 L204F/F298L/I335A) with F140H
As for B2, in data set [6], the “Catalytic efficiency (%) Compound A” value was found to be 97%, the “Catalytic efficiency (%) benzobicyclon technical” value was found to be 100%, the “Catalytic efficiency (%) Mesotrione” value stood at 90% and the “Catalytic efficiency (%) methyl-benquitrione” value is reported as 95%. For the same molecule, in data set [6], the “Catalytic efficiency (%) pyraquinate technical” value is reported as 40%, the “Catalytic efficiency (%) tefuryltrione” value stood at 85% and the “Catalytic efficiency (%) tembotrione” value turned out to be 71%. Besides, the “Catalytic efficiency (%) topramezone” value in data set [7] turned out to be 4%. Besides, the “resistance of over-expressing rice plants to methyl-benquitrione” value in data set [9] is given as “can improve the resistance; also recorded: obvious resistance”.
